Where a chain is given by its changes, count along the chain named.
Assays:
Assay in all cases: EMSA; Gel-shift buffer not given (as described in ref. 6); TnsD stored in 500 mM KCl, 50 mM Tris-HCl pH 8.0, 1 mM EDTA, 2 mM DTT, 25% glycerol
TnsD 1-350 = biological target: T1, TnsD 1-350 (Escherichia coli (transposon Tn7), UniProt P13991 1-350); details: protein: recombinant
T1 sequence: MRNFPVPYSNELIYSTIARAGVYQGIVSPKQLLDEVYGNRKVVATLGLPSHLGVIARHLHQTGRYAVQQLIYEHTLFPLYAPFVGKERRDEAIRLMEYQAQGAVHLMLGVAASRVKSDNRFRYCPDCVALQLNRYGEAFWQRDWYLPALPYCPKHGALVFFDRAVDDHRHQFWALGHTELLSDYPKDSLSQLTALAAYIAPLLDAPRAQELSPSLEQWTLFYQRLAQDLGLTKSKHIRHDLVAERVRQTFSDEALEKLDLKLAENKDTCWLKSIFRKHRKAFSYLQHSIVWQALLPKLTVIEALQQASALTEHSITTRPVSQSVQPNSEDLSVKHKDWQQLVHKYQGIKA

TnsD C447Y = biological target: T2, TnsD C447Y (Escherichia coli (transposon Tn7), UniProt P13991 1-508, C447Y); details: protein: recombinant; tags: intein-chitin tag, cleaved with DTT
T2 sequence: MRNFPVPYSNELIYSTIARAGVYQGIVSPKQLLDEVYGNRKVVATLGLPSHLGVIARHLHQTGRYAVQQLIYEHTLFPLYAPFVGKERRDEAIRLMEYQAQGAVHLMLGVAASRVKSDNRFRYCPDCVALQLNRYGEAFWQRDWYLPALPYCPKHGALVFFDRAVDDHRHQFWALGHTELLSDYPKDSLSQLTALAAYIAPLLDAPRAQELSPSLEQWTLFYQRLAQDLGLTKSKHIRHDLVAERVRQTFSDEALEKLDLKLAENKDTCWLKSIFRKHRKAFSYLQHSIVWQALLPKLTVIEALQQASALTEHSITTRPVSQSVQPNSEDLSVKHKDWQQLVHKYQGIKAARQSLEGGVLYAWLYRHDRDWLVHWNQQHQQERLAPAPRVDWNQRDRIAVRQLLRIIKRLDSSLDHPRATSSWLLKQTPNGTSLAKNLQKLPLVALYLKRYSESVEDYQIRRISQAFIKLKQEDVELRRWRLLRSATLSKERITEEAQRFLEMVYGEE

TnsD Q340Z = biological target: T3, TnsD Q340Z (Escherichia coli (transposon Tn7), UniProt P13991 1-339); details: protein: recombinant
T3 sequence: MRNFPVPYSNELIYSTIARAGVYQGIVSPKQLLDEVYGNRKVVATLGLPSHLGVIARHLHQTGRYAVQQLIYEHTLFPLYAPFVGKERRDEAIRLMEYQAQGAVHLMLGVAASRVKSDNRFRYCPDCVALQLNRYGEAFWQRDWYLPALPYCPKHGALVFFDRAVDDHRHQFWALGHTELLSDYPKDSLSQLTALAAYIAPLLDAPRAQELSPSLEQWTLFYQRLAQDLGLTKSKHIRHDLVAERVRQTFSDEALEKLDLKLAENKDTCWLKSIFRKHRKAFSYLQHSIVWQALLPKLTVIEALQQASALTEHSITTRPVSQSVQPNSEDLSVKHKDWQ

TnsD P147L = biological target: T4, TnsD P147L (Escherichia coli (transposon Tn7), UniProt P13991 1-508, P147L); details: protein: recombinant; tags: intein-chitin tag, cleaved with DTT
T4 sequence: T2 sequence with P147L, Y447C

TnsD A486H = biological target: T5, TnsD A486H (Escherichia coli (transposon Tn7), UniProt P13991 1-508, A486H); details: protein: recombinant; tags: intein-chitin tag, cleaved with DTT
T5 sequence: T2 sequence with Y447C, A486H

B1: attTn7 wt (+23 to +58) (dsDNA)
DNA 1: CCGCGTAACCTGGCAAAATCGGTTACGGTTGAGTAA
DNA 2: TTACTCAACCGTAACCGATTTTGCCAGGTTACGCGG
- binding result (TnsD 1-350): no binding
- binding signal (TnsD C447Y): 0.7 relative to wt
- binding signal (TnsD Q340Z): < 0.05 relative to wt
- binding signal (TnsD P147L): 0.07 relative to wt
- binding signal (TnsD A486H): 0.1 relative to wt

Source: PMC2918618, “Characterization of the TnsD-attTn7 complex that promotes site-specific insertion of Tn7” (Mobile DNA, 2010)
